The numbers were not newly measured in publication PMC6669380, which cites them from elsewhere.

This series has as its target SLP-76 RxxK motif (Homo sapiens) (UniProt Q13094).

In general, Kd refers to a measure of binding affinity in units of concentration. Take “Gads C-terminal SH3 (from UniProt O75791)”: the equilibrium dissociation constant (Kd) was 14.5 nM.
